{"source": "paper PMC6312923", "about": "(Life Science Alliance, 2018)", "molecules": {"B1": {"name": "Cdt1-3FLAG (natural protein, human, UniProt Q9H211 1-546, looked up)", "chain": "MEQRRVTDFFARRRPGPPRIAPPKLACRTPSPARPALRAPASATSGSRKRARPPAAPGRDQARPPARRRLRLSVDEVSSPSTPEAPDIPACPSPGQKIKKSTPAAGQPPHLTSAQDQDTISELASCLQRARELGARVRALKASAQDAGESCTPEAEGRPEEPCGEKAPAYQRFHALAQPGLPGLVLPYKYQVLAEMFRSMDTIVGMLHNRSETPTFAKVQRGVQDMMRRRFEECNVGQIKTVYPASYRFRQERSVPTFKDGTRRSDYQLTIEPLLEQEADGAAPQLTASRLLQRRQIFSQKLVEHVKEHHKAFLASLSPAMVVPEDQLTRWHPRFNVDEVPDIEPAALPQPPATEKLTTAQEVLARARNLISPRMEKALSQLALRSAAPSSPGSPRPALPATPPATPPAASPSALKGVSQDLLERIRAKEAQKQLAQMTRCPEQEQRLQRLERLPELARVLRSVFVSERKPALSMEVACARMVGSCCTIMSPGEMEKHLLLLSELLPDWLSLHRIRTDTYVKLDKAADLAHITARLAHQTRAEEGL", "notes": "Cdt1, human; also called FLAG-tagged Cdt1; Cdt1-3FLAG (WT); source: Sf21 insect cells (baculovirus), purified (DEAE flowthrough, anti-FLAG resin, 3× FLAG peptide elution); not shown: 3FLAG, C-terminal, kept"}, "B2": {"name": "Cdt1: DNA replication licensing factor, FLAG-tagged, purified from insect cells; GFP-tagged in FRAP (protein, UniProt Q9H211 1-546, looked up)", "DNA replication factor Cdt1": "MEQRRVTDFFARRRPGPPRIAPPKLACRTPSPARPALRAPASATSGSRKRARPPAAPGRDQARPPARRRLRLSVDEVSSPSTPEAPDIPACPSPGQKIKKSTPAAGQPPHLTSAQDQDTISELASCLQRARELGARVRALKASAQDAGESCTPEAEGRPEEPCGEKAPAYQRFHALAQPGLPGLVLPYKYQVLAEMFRSMDTIVGMLHNRSETPTFAKVQRGVQDMMRRRFEECNVGQIKTVYPASYRFRQERSVPTFKDGTRRSDYQLTIEPLLEQEADGAAPQLTASRLLQRRQIFSQKLVEHVKEHHKAFLASLSPAMVVPEDQLTRWHPRFNVDEVPDIEPAALPQPPATEKLTTAQEVLARARNLISPRMEKALSQLALRSAAPSSPGSPRPALPATPPATPPAASPSALKGVSQDLLERIRAKEAQKQLAQMTRCPEQEQRLQRLERLPELARVLRSVFVSERKPALSMEVACARMVGSCCTIMSPGEMEKHLLLLSELLPDWLSLHRIRTDTYVKLDKAADLAHITARLAHQTRAEEGL", "modifications": "FLAG or eGFP tag", "notes": "DNA replication licensing factor, FLAG-tagged, purified from insect cells; GFP-tagged in FRAP"}}, "key": {"[1]": {"biological_target": "T1, recombinant PCNA (Homo sapiens, UniProt P12004)", "T1 construct": "made in house; host or cells: Escherichia coli BL21 (DE3)", "T1 sequence (P12004 whole entry)": "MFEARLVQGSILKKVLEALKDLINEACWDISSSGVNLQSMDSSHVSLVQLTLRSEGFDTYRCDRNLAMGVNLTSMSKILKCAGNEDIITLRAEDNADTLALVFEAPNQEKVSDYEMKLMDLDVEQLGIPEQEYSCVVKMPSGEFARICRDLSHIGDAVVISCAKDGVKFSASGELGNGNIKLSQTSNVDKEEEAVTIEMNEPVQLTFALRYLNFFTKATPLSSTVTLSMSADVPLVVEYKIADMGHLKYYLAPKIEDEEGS", "test": "FP assay, direct binding of TAMRA-labelled PIP box peptides to PCNA"}, "[2]": {"tested_on": "PCNA", "test": "X-ray crystal structure of PCNA/PIP peptide complexes", "assay_type": "binding, human", "conditions": "PCNA trimer; Cdt2 3.5 Å (6QC0), Cdt1 3.4 Å (6QCG)", "protocol": "The protein solution at 17 mg·ml^−1 was pre-incubated with an equimolar amount of peptide, and 0.1 μl of this solution was mixed with 0.1 μl of reservoir solution and equilibrated against a 30 μl reservoir. Crystals for the Cdt2 complex were obtained in 10% (wt/vol) PEG 6000 and 100 mM MES/HCl, pH 6.0. Crystals for the Cdt1 complex were obtained in 15% (wt/vol) PEG 400, 100 mM calcium acetate, and 100 mM MES/HCl, pH 6.0. Crystals appeared at 4°C within 72 h. Crystals were briefly transferred to a cryo-protectant solution containing the reservoir solution and 25% (wt/vol) PEG200 and vitrified by dipping in liquid nitrogen.\nX-ray data were collected on beamline ID29 at the European Synchrotron Radiation Facility. The images were integrated with XDS ([Kabsch, 2010]) and merged and scaled with AIMLESS ([Evans, 2011]). […] The models were built using COOT ([Emsley et al, 2010]) and refined with REFMAC ([Murshudov et al, 2011]) in iterative cycles. Model re-building and refinement parameter adjustment were performed in PDB-REDO ([Joosten et al, 2014]); homology-based hydrogen bond restraints ([van Beusekom et al, 2018]) were used at some stages of the procedure. The quality of the models was evaluated by MOLPROBITY ([Chen et al, 2010]). […]"}, "[3]": {"biological_target": "T2, PCNA (recombinant, for the in vitro binding assays; free or loaded on DNA) (human, UniProt P12004 1-261)", "T2 construct": "PCNA, human, purified essentially as a trimer as described (Fukuda et al, 1995); also called free PCNA; PCNA^(on DNA); source: E. coli Rosetta(DE3) transformed with pT7-PCNA, purified (Resource Q, Superdex 200, Mono Q)", "T2 sequence (P12004 whole entry)": "as above", "test": "pull-down; PCNA loaded by RFC (2 mM ATP, 37°C, 1 h) on nicked circular DNA beads, washed; beads incubated with purified Cdt1-3FLAG or CRL4^Cdt2 alone at 4°C for 1 h in HBS buffer (10 mM Hepes pH 7.4, 10 mM MgCl2, 0.2 mM EDTA, 0.05% Tween 20, 0.15 M NaCl); bound proteins by Western blot", "conditions": "both partners purified"}, "[4]": {"tested_on": "free PCNA", "test": "Binding of free PCNA to Cdt1 or CRL4^Cdt2 on anti-FLAG beads", "parameters": "species or system human", "conditions": "2 h at 4°C, Western blotting, three independent experiments", "description": "FLAG-tagged Cdt1 (Cdt1-3FLAG) and CRL4^Cdt2 (Cdt2-3FLAG) were expressed in insect cells and purified on anti-FLAG resin (Fig 5A)."}, "[5]": {"tested_on": "PCNA loaded on nicked circular DNA (PCNA^on DNA)", "test": "Binding of purified Cdt1 and CRL4^Cdt2 to PCNA loaded on ncDNA beads", "parameters": "species or system human", "conditions": "RFC +, 4°C 1 h, n = 3 or n > 3", "protocol": "In our in vitro conditions, three molecules of PCNA trimer were loaded on one plasmid DNA. […] The interaction was not mediated by RFC proteins bound on ncDNA (Fig 5D, lane 6).\nFigure S5. […] The beads were then incubated with Cdt1 or CRL4^Cdt2 (Step 2; binding). (B) RFC-dependent loading of PCNA.\nClosed circular (cc) DNA beads were prepared as described ([Higashi et al, 2012]). Briefly, single-stranded DNA templates prepared using pBluescript II KS(−) were annealed with a biotinated oligonucleotide primer (5′-[…] [biotin-dT][…]-3′). After second-strand synthesis and ligation, covalently cc double-stranded DNA was purified by CsCl/EtBr density gradient centrifugation, incubated with streptavidin, and bound to biotin-sepharose beads to produce the cc DNA beads (around 100 ng per 1 μl bed volume of beads). A single nick was introduced by Nb.BbvCI (New England Biolabs) treatment to produce the ncDNA beads. As control beads, biotin-sepharose beads were incubated with streptavidin alone (sa-beads).\nThe sa-beads were treated in the same way and used as control beads. The beads were incubated with Cdt1 or CRL4^Cdt2 alone at 4°C for 1 h and washed with HBS buffer. The bound proteins were analysed on Western blotting. […] The purified nc DNA was run on 0.8% agarose gel in 1× TBE (Tris-borate-EDTA) buffer and detected with ethidium bromide."}, "[6]": {"tested_on": "UV-C–damaged sites in MCF7 cells", "test": "FRAP of GFP-tagged proteins at sites of local UV-C damage in MCF7 cells", "assay_type": "cell-based, human", "conditions": "GFP-tagged, UV-C 50 J/m^2"}}, "data": [{"molecule": "MEQRRVTDFFARRR [Cdt1^PIP, Cdt1 PIP box peptide (1–14)]", "values": [{"measurement": "relative affinity for PCNA, Cdt2^PIP versus Cdt1^PIP", "setting": "[1]", "value": "two orders of magnitude weaker"}, {"measurement": "binding stoichiometry in crystal", "setting": "[2]", "value": "one peptide bound per monomer"}]}, {"molecule": "B1", "values": [{"measurement": "stoichiometry N", "setting": "[3]", "value": "2.04 Cdt1 molecules on one PCNA trimer"}]}, {"molecule": "B2", "values": [{"measurement": "binding of free PCNA to protein beads", "setting": "[4]", "value": "PCNA was detected"}, {"measurement": "bound protein", "setting": "[5]", "value": 301, "unit": "fmol"}, {"measurement": "FRAP behaviour at UV-C–damaged sites", "setting": "[6]", "value": "dynamic interactions"}]}]}
